Results as given in US20110070235A1.
“And” between values parts separate entries of the source, which are not always exact repeats. Equal entries are not always repeated.

B1: 3139_P23 (antibody, V domains shown)
VH: QVQLQESGPRLVKPSESLSLTCTVSGGSISNSFWGWIRQPPGEGLEWIGYVYNSGNTKYNPSLKSRVTISRDTSKSQLYMKLRSVTAADTAVYYCARHDDASHGYSISWGHGTLVTVSS
VL: DIQMTQSPSSLSASVGDRVTITCRASQTISTYLNWYQQKSGKAPKLLIYAASGLQSGVPSRFSGSGSGTDFTLTISSLQPEDFATYFCQQSYNTPLTFGQGTKVEIK
B2: TCN-032 (8I10) (antibody, V domains shown)
VH: QVQLQESGPGLVKPSETLSLTCTVSGSSISNYYWSWIRQSPGKGLEWIGFIYYGGNTKYNPSLKSRVTISQDTSKSQVSLTMSSVTAAESAVYFCARASCSGGYCILDYWGQGTLVTVS
VL: DIQMTQSPSSLSASVGDRVTITCRASQNIYKYLNWYQQRPGKAPKGLISAASGLQSGVPSRFSGSGSGTDFTLTITSLQPEDFATYYCQQSYSPPLTFGGGTRVEIK
B3: 3259_J21 (antibody, V domains shown)
VH: QVQLQESGPRVVRPSETLSLTCTVSGGSISSYNWIWIRQPPGKGLEWIGHIYDYGRTFYNSSLQSRPTISVDASKNQLSLRLTSVTASDTAVYYCARPLGILHYYAMDLWGQGTTVTVSS
VL: DIQMTQSPLSVSVSVGDRVTIACRASQSIDKFLNWYQQKPGKAPKLLIYGASNLHSGAPSRFSASGSGTDFTLTITNIQTEDFATYLCQQSFSVPAFGGGTKVEIK
B4: 3253_P10 (antibody, V domains shown)
VH: QVQLQESGPGLLKPSDTLALTCTVSGGSITSDYWSWIRQPPGRGLDWIGFFYNGGSTKYNPSLKSRVTISADTSKNQLSLKLTSVTAADTGVYYCARHDAKFSGSYYVASWGQGTRVTVSS
VL: DIQMTQSPSSLSASVGDRVTISCRASQSISTYLNWYQQQPGKAPKVLISGATDLQSGVPSRFSGSGSGTDFTLTISSLQPEDFATYYCQQSYNTPLIFGQGTKLEIK
B5: 3243_J07 (antibody, V domains shown)
VH: QVQLQESGPGLLKPSDTLALTCTVSGGSITSDYWSWIRQPPGRGLDWIGFFYNGGSTKYNPSLKSRVTISADTSKNQLSLKLTSVTAADTGVYYCARHDVKFSGSYYVASWGQGTRVTVSS
VL: DIQMTQSPSSLSASVGDRVTISCRASQSISTYLNWYQQQPGKAPKVLISGATNLQSGVPSRFSGSGSGTDFTLTISSLQPEDFATYYCQQSYNTPLIFGQGTKLEIK
B6: 3244_I10 (antibody, V domains shown)
VH: QVQLQESGPGLLKPSDTLALTCTVSGGSITSDYWSWIRQPPGRGLDWIGFFYNGGSTKYNPSLKSRVTISADTSKNQLSLKLTSVTAADTGVYYCARHDAKFSGSYYVASWGQGTRVTVSS
VL: DIQMTQSPSSLSASVGDRVTISCRASQSISTYLNWYQQQPGKAPKVLIFGATNLQSGVPSRFSGSGSGTDFTLTISSLQPEDFATYYCQQSYNTPLIFGQGTKLEIK
B7: 3248_P18 (antibody, V domains shown)
VH: QVQLQESGPGLVKPSETLSLTCTVSGGSISAYHWSWIRQPPGKGLEWIGHIFDSGSTYYNPSLKSRVTISLDASKNQLSLRLTSVTASDTAIYYCARPLGSRYYYGMDVWGQGTTVTVSS
VL: DIQMTQSPSSLSASVGDRVTITCRASQSISRYLNWYQQKPGKAPKLLIYGASTLQNGAPSRFSGSGSGTDFTLTISSLQPEDSATYLCQQSYSVPAFGGGTKVEVK
B8: 3244_H04 (antibody, V domains shown)
VH: EVQLVESGGGLVQPGGSLRLSCTASGLSVSSTYMNWVRQAPGKGLEWVSVFYSETRTYYADSVKGRFTVSRHNSNNTLYLQMNSLRAEDTAVYYCARVQRLSYGMDVWGQGTTVTVSS
VL: DIQMTQSPSSLSASVGDRVTITCRASQSISTYLNWYQKRPGKAPKLLVYGASSLQSGVPSRFSGSGSGTDFTLTIASLQPEDSAVYYCQQTYSIPLFGQGTRLEIK
B9: 3245_O19 (antibody, V domains shown)
VH: EVQLVESGGGLVQPGGSLRLSCTASGLSVSSTYMNWVRQAPGKGLEWVSVFYSETRTYYADSVKGRFTVSRHNSNNTLYLQMNSLRVEDTAVYYCARVQRLSYGMDVWGQGTTVTVSS
VL: DIQMTQSPSSLSASVGDRVTITCRASQSISTYLNWYQKRPGKAPKLLVYGASTLQSGVPSRFSGSGSGTDFTLTIASLQPEDSATYYCQQTYSIPLFGQGTRLEIK
B10: 3260_D19 (antibody, V domains shown)
VH: DMQLVESGGGLVPPGGSLRLSCAASGFSVSDNYINWVRQAPGKGLDWVSVFYSADRTSYADSVKGRFTVSSHDSKNTVYLQMNSLRAEDTAVYYCARVQKSYYGMDVWGQGTTVTVSS
VL: GIQMTQSPSSLSASVGDRVTITCRASQSISRYLNWYLQKPGKAPKLLISGASSLQSGVPSRFSGTGSGTEFTLTISSLQPEDFATYYCQQTFSIPLFGQGTKVEIK
B11: 3242_P05 (antibody, V domains shown)
VH: DMQLVESGGGLVPPGGSLRLSCAASGFSVSDNYINWVRQAPGKGLDWVSVFYSADRTSYADSVKGRFTVSSHDSKNTVYLQMNSLRAEDTAVYYCARVQKSYYGMDVWGQGTTVTVSS
VL: GIQMTQSPSSLSASVGDRVTITCRASQSISRYLNWYLQKPGKAPKLLISGASSLQSGVPSRFSGTGSGTEFTLTISSLQPEDFATYYCQQTFSIPLFGQGTKVEIK
B12: 3241_G23 (antibody, V domains shown)
VH: QVQLQQSGPGLVKPSQTLSLTCTVSGGPVSGGGYSWNWIRQRPGQGLEWVGFMFHSGSPRYNPTLKSRITISVDTSKNLVSLKLSSVTAADTAVYFCARVGQMDKYYAMDVWGQGTTVTVSS
VL: DIQMTQSPSSLSSSVGDRVTITCRASQSIGAYVNWYQQKAGKAPQVLIFGASNLQSGVPSRFSGSGSGTDFTLTISSLQPEDFATYFCQQTYSTPITFGQGTRLEIK
B13: 3136_G05 (antibody, V domains shown)
VH: QVQLQESGPGLVKPSETLSLTCSVSGGSISSDFWSWIRQPPGKGLEWIGYVYNRGSTKYSPSLKSRVTISADMSKNQFSLNMSSVTAADTAVYYCAKNGRSSTSWGIDVWGKGTTVTVSS
VL: DIQMTQSPSSLSASVGDRLTITCRASQSISTYLHWYQQKPGKAPKLLIYAASSLQSGVPSRFSGSRSGTDFTLTISSLQPDDFATYYCQQSYSPPLTFGPGTKVDMK
B14: 3252_C13 (antibody, V domains shown)
VH: QVQLQESGPGLVKPSETLSLTCTVSGASISSDYWSWIRLPPGKGLEWIGYIYNRGSTKYTPSLKSRVTISLDTAENQFSLRLRSVTAADTAIYYCARHVGGHTYGIDYWGQGTLVTVSS
VL: DIQMTQSPSSLSASVGDRVTITCRASQSISNYLNWYQHKPGEAPKLLNYAASSLQSGVPSRFSASGSGTDFTLTISSLQPEDFATYYCQQSYNTPITFGQGTRLEIK
B15: 3255_J06 (antibody, V domains shown)
VH: QVQLQESGPGLVKPSETLSLTCTVSGASISSDYWSWIRLPPGKGLEWIGYIYNRGSTKYTPSLKSRVTISLDTAENQFSLRLRSVTAADTAVYYCARHVGGHTYGIDYWGQGTLVTVSS
VL: DIQMTQSPSSLSASVGDRVTITCRASQSISNYLNWYQHKPGEAPKLLNYAASSLQSGVPSRFSASGSGTDFTLSISGLQPEDFATYYCQQSYNTPITFGPGTRLEIK
B16: 3362_B11 (antibody, V domains shown)
VH: QVQLQASGPGLVKPSETLSLTCTVSGDSITSGAYYWTWIRQHPGKGLEWIGYIYYSGNTYYNPSLKSRVTISLDTSKNQFSLKVNSVTAADTAVYYCARAASTSVLGYGMDVWGQGTTVTVSS
VL: DIQMTQSPSSLSASVGDRVTITCRASQSISRYLNWYQQEPGKAPKLLVYAASSLQSGVPSRFSGSGSGTDFTLTISSLQPEDFATYYCQQSYSTPLTFGQGTRLEIK
B17: 3420_I23 (antibody, V domains shown)
VH: QVQLQESGPGLVKPSETLSVTCKVSGDSISSYSWSWIRQPPGKGLEWVGYLYYSGSTKYNPSLKSRTTISVDTSTNQLSLKLSFVTAADTAVYFCARTGSESTTGYGMDVWGQGTTVTVSS
VL: DIQMTQSPSSLSASVGDRVTITCRASQSISTYLNWYQQKPGKAPKLLIYAASSLHSGVPSRFSGSGSGTDFALTISSLQPEDFATYYCQQSYSPPITFGQGTRLEIK

Biological target: M2e
Test: peptide ELISA, mAb 5 ug/mL

| Molecule | ELISA A450 |
| --- | --- |
| TCN-032 (8I10) (antibody) | 0.13 |

Biological target: M2 protein of A/Hong Kong/483/1997, expressed on cells (Influenza A virus A/Hong Kong/483/1997 (H5N1))
Test: not given

| Molecule | FACS M2-HK MFI |
| --- | --- |
| B1 | 110 MFI |
| B2 | 754 MFI and 1080 MFI |
| B3 | 1670 MFI |
| B4 | 43 MFI |
| B5 | 131 MFI |
| B6 | 434 MFI |
| B7 | 967 MFI |
| B8 | 963 MFI |
| B9 | 919 MFI |
| B10 | 846 MFI |
| B11 | 596 MFI |
| B12 | 1700 MFI |
| B13 | 109 MFI |
| B14 | 449 MFI |
| B15 | 442 MFI |
| B16 | 218 MFI |
| B17 | 112 MFI |
